Experimental data published in the nanobody polyreactivity screen of Harvey et al. (2022).

Assay: yeast display, Sf9 membrane polyspecificity reagent, FACS + sequencing; frameworks hold sequencing errors
Outline: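 Genes from sorted yeast were amplified by colony PCR, read by MiSeq 2 × 250 sequencing and filtered on CDR length. These cells carried a synthetic nanobody library in Saccharomyces cerevisiae BJ5465 and were sorted by FACS into low and high (top ~1%) gates on anti-HA and streptavidin fluorescence. Polyreactivity is labelled according to the gate of origin.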

Sequence | polyreactivity (PSR sort gate)
QVQLVESGGGIVQAGGRLRLSCAASGRIFDDNSMGWYRKAPGKETELVATISSSGVSTSYADSVKGRFTISRDNAKNTVYFQMNSLNPEYTAVYFCNAGYRLRYKFDYWGQGTQVTVAS | low polyreactivity
QVQLVESGGGLVQAGGSLRLSCAASGFTFISNAMGWYRQAPGKERELVAAISSAGGRTYYADSVKGRFTISRATAKITVYLQMNTLKPEDTEVYYSNADRSLLYSRKIEYDSWGQGTQVTVSS | low polyreactivity
QVQLVESGGGLVQAGGSLRLSCAASGSIFWSNAMGWYIQAPGKERELVAAITGGGTTNYADSVKGRFTISRDNAKNTVYLQMNSLKPEDTAVVYTVSSAQYDYWGQGTQVTVSS | low polyreactivity
QVQLVESGGGLVQAGGSLRLSCAAYGIIFSYNVMGWYRQAPGKEREYVAAITRSGGSTYYADSVKGRFTISRDNAKNTVYLQMNSLKPEDTAVYYCAATTWSGPSRYYDWGQGTQVTVSS | high polyreactivity
QVQLVESGGGLVQSGCSLRLSCAASGRIFDRYAMGSYRQAPGKERELVAAISSSGGSTYYADSVKGRFTISRDHAKNTVYLLMNSLKPEDTAVYYCATGTSRYRHQRDYWGQGTQVTVSS | high polyreactivity
QVQLVESGGGLVQAGGSLRLSCAASGLIFGYYAMGWYRQAPGKERELVARITRRGGSTYYADSVKGRFTISRDNAKNTVYLQRNSLKPEDTAVYYCAADWYSPRISREYDYWGQGTQVTVSS | high polyreactivity
QVQLVESGGGLVQAGGSLRLSCAASGFIFLEYAMGWYRQAPGKERELVAAISSRGTRTYYADSVKGRFTISRDNAKNTVYLQMNSLKPEDSAVYYCARVWSQSSNYEYDYWGQGTQVTVSS | high polyreactivity
QVQLVESGGGLVQAGGSLRLSCAASGRIFPPNAMGWYRQAPGKERELVAGITSSGDTTYYADSVKGRFTISRDNAKNTVYLQMNSLKPEDTAVYYCAKDEVYADDRSALFDYWGQGTQVTVSS | low polyreactivity
QVKLVDSGGGLVQAGGSLRLSCAASGRTFWNYAMGWYRQAPGKERELVAVIRFSDGSTYYADSVKGRFTISRDNAKNTVYLQMNSLKPEDTAVYYCAAKGPRRWGSGFDYWGQGTQVTVSS | low polyreactivity
QVQLVESGGGLVQAGGSLRLSCAASGSSRYAMGWYTPAPGKERELVAVITLSGGITYADSVKGRFTISRDNAKNTVYLQMKSLKPEDTAVYYCNADYGDWPTGGDYWGQGTQVTVSS | low polyreactivity
QVQLVDSGAGLVQAGGSLRLICAASGSIFPYYAMGWYRQAPGKERELVAGISNGDSTNYADSVKGRFTISGDNAKNTVYLQINSLKPEDTAVYYCSTVLPGGRYYGPYDFWGQGTQVTVSS | low polyreactivity
QVQLVESGGGLVQAGGSLRLSCAASGFIFHRYAMGWYRQAPGKERELVAAISRRGGSTYYADSVKGRFTISRDNAKNTVYLQMNSLKPEDTAVYYCARTVGDRTLLESDSWGQGTQVTVSS | high polyreactivity
QVQLVESGGGLVQAGGSLRLSCAASGRNLHYYSMGWYRQAPGKEWELVAAITWSGGSTYYADSVNGRFTISRDNAKNTVYLQMNSLKPVDTSVYYCAARGTDWGQGTQVTVSS | low polyreactivity
QVQLVESGGGLVQAGGSLRLTSAASGFTFYPYAMGWYRQATGKEMELVAAINSGGSTYYADSVKGRFTISRDNAKNSVYLQMNSLKPEDTAVYYCAAYGKRGAVAFYYWGQGTQVTVSS | high polyreactivity
QVQLVESGGGLVQAGGSLRLSCAASGFTLADNTMGWYRQAPGKEMELVAAITSGASTYYADSVKGRFTISRDNAKNTVYLQMNSLKPEDTAVYYCAALYYWLSGYDYWGQGTQVTVSS | low polyreactivity
QVQLVESGGGLVQAGGSLRLSCAASGFIYEDYAMGWYRQAPGKERELVAAITWRGGRTYYADCVKGRYTISRDNAKNTVYLQMNSLKPEDTAVYYCRPLVYSYASRYGYWGQGTQVTVLS | high polyreactivity
QVQLVESGGGLVQAGGSLRLSCAASGFIFGNYAMGWYRQAAGNERELVAAISQRGGTTYYADSVKGRFTISRDNAKNTVYLQMNSLKPEDTAVYYCKAYYIGYYVDYEYWGQGTQVTVSS | high polyreactivity
QVQLVESGGGLVQAGGSLRLSCAASGSTFASYAMGWYRQAPGKERELVAAISSSGARTYYADSVKGRFTISRDNAKNTVYLQMNSLKPEDTAVYYCATDSKITETSLRYDYWGQGTQVTVSS | high polyreactivity
QVQLVESGGGLDQAGGSLRLSCAASGFTSYENAMGSYRQAPGKERELVAAITWDGGSTYYADSVKGRFTISRDNAKNTVYFQMNSLKPEDTAVYYCAARQVVYYAYTFDYWGQGTQVTVSS | low polyreactivity
QVQLVESGGGLVQAGGSLRLSCAASGLTFPLYAMGWYRQAPGKEREFVAAITVSGVSTSYADSEKGRFTISRDIAKITVYLQMNSLKPEDTAVYYCAADYYIWTYWDVYYWGQGTQVTVSS | high polyreactivity
QVQLVESGGGLVQAGGILRLSCASSGFTFSLYDMGWYRQAPRKDRELVADINGSGGSTYYADSVKGRFTISRDNAKNTVYLQLNILKPEDTAVYYCAAGPPSRWWYIVDYGYWGQGTQVTVSS | high polyreactivity
QVQLVDSGGGLVQAGGSLRLSCADSGSIFGVYAMGWYRQATGKESELVAAISISDGITYYADSVKGRFTISRDNAKNNVYLQMNSLKPEDTAVYYCAAELSPYYYGESYDYWGQGTQVTVSS | high polyreactivity

Sequence | polyreactivity (PSR sort gate)
QVQLVESGGGLDQAGGSLRLICAASGFTYPIYAMGWYRQAPGKERELVAAITTRGGRTYYADSVKGRFTISRDNAKNTVYLQMNSLKAEDTAVYYCNALGYAYRLWFGYWGEGTQVTVSS | high polyreactivity
QVQLVESGGGLVQAGGSLRLSCAASGSTFSENAMGWYRQAPGKERELVAAISWGGGSTYYADSVKGRFTISRDNAKNTVYLQMNSLKPEDTAVYYCIADVFDDYGYFESDYWGQGTQVTVSS | low polyreactivity
QVQLVESGGGLVQAGGSLRLTSAASGRIFYNYAIGWYRQAPGKERELVAAISSSGGSTYYADSVKGRFTISRDNAKNTVYVQMNSLKPEDTAVYYCAAYSYGLYYTYDYWGQGTQVTVSS | high polyreactivity
QVQLVESGVGLVQAGGSLRLSCAATGFTFDENAMGWYRQAPGINYSGASTYYAYSVKGRFTISRDNAKNTVYLQMNSLKPEDTAVYYCAAEVVAQMNYWGQGTQVTVSS | low polyreactivity
QVQLVESGGGLVQAGGSLRLSCAASGSIFGYNAMGWYRQAPGKEREFVASIRYRGGSTYYADSVKGRFTISRDNAKNTVYLQMNSLKPEDTAVYYSAAYWWGVSKRQYGYWGQGTQVTVSS | high polyreactivity
QVQLVESGGGLVQAGGSLRLSCAASGRIFDYYAMGWYRQAPGKERELVAAISSSVGNTYYADSVKGRFTISRDNAKNTVYLQMNSLKPEDTAVYYCADYSYVRSSYEVEYDYWGQGTQVTVSS | low polyreactivity
QVQLVESGGGLVQAGGSLRLSCAASGFIFGVYAMGWYRQAPGKERELVAAISRSGGSTYYADSVKGRFTISRDNAKNTVYLQMNSLKPEDTAVYYCAVRGSWYSEHNYWGQGTQVTVSS | high polyreactivity
QVQLVESGGGLVQAGGSLRLSCAASGRTFVANGMGGYRQAPGKERELVAAINYGDDTYYADSVKGRFTISRDNAKNTVYLQMNSQKPEDTAFYFLAADIIYGYEVYTYTSDYWGQGTQVTVSS | low polyreactivity
QVQLVESGGGLVQAGGSLRLSCAASGFTLRYYAMGWSRQAPVKERELVATIKRSGASTYYADSVKGRFTISRDNSKNTVYLQMNSLKPEDTAVYYCNTATSRAYRYDYWGQGTQVTVSS | high polyreactivity
QVQLVESGGGLVQAGGSLRLSCAASGSIFVGNGMGWYRQAPGKERELVAAITFRSGSTYYADSVKGRFTISRDNAKNTVYFQMISMKPEDTAVSYCAADEYYQVYAYDYCGQGTQVTVSS | low polyreactivity
QVQLVESGGGLVQAGGSLRLSCAASGRIFWGYAMGWYRQAPGKERELVAAISWSGGSTYYADSVKGRFTISRDNAKNTVYLQMNSLKPEDTAVYYCNAYSDGDEDYWGQGTQVTVSS | low polyreactivity
QVQLVESGGGLVQAGGSLRLSCAASGRIYPTYTMGWYRQAPGKERELVAAINRGGGSTYYADSVKGRFTISRDTAKNTVYLQLICLKPEDTAVYYCTARTYYRSYGYDYWGQGTQVTVSS | low polyreactivity
QVQLVESGGGLVQAGGSLRLSCAASGSTFRPNAMGWYRQAPGKERELVAGISLNGTSTYYADSVKGRFTISRDNAKNTVYLQMNSLKPEDTAVYYCAADYQCGRGAEPYVFFDPEMDYWGQGTQVTVSS | low polyreactivity
QVQLVESGGGLVQAGGSLRLSCAASGLTFANYAIGWYRQAPGKERELVAAISTWSGGSTYYADSVKGRFTISRDNAKNTVYLQMNSLKPEDTAVYYCAARRYSRGRLPYDYWGQGTQVTVSS | high polyreactivity
QVQLVESGGGLVQAGGSLRLSCAASGGTFGSNAMGWYRQAPGKERELVARISGRGGRTYYADSVKGRFTISRDNAKNTVYLQMNSLKPEDTAVYYCAATYIIWGQGTQVNVSS | high polyreactivity
QVQLVESGGGLVQAGGSLRLSCAASGRIIVNNAMGWYRQAPGKERELVAAITRRGGSTYYADSVKGRFTISRDNAKNTVYLQMNSLKPEDTAVYYCARSNQRTVYVASDYWGQGTQVTVSS | high polyreactivity
QVQLVESGGGLVQAGGSLRLSCAASGRIFVVNAMGWYRQAPGKERELVATITRGASTYADSVKGRFTISRDNAKNTVYLQMNSLKLEDTAVYYCAAAKRPQVVRYDWTKLEYWGQGTQVTVSS | high polyreactivity
QVQLVESGGGLVQAGGSLRLSCAASGSTFVKYVMGWYRQAPGKERELVAAISWSGGSTYYADSVKGRFTISRDNAKNTVYLQMNSLKPEDTAVYYCAAVNWYDSYAKYYWGQGTQVTVSS | high polyreactivity
QVQLVESGGGLVQAGGSLRLSCAASGRTFDRNAMGWYRQAPGKEREFVAAISYRGASTYADSVKGRFTISRDNAKNTVYLQMNSLKPEDTAVYYCAARVTYYGTSGYYYWGQGTQVTVSS | high polyreactivity
QVQLVESGGGLVQAGGSLRLSCAASGYTFIVNAIGWYRQAPGKERQLVAAISRSGSSTRSADSVKWRFTISRDNAKNTVYLLMNRLKPEDTSVYYCAADLYSSEGRYYFWGQGTQVTVSS | high polyreactivity
QVQLVESGGGLVQAGGSLRLSCAASGGTFGFNAMGWYRPAPGKERELVAAISSSGGRTYYADSVNGRFTISRDNAKNNVYLQMMSLKEEDTAVYYCAARVQVGGRSYVGYYYWGKGTQVTVSS | high polyreactivity
